Key:
[1] = target: rabbit muscle G-actin, biotinylated (rabbit, UniProt P68135 1-377); assay: BLI; conditions: both partners purified
[2] = target: rabbit muscle F-actin, biotinylated (rabbit, UniProt P68135 1-377); assay: BLI; conditions: both partners purified

B1: Plasmodium falciparum aldolase (enzyme)
chain: MAHCTEYMNAPKKLPADVAEELATTAQKLVQAGKGILAADESTQTIKKRFDNIKLENTIENRASYRDLLFGTKGLGKFISGAILFEETLFQKNEAGVPMVNLLHNENIIPGIKVDKGLVNIPCTDEEKSTQGLDGLAERCKEYYKAGARFAKWRTVLVIDTAKGKPTDLSIHETAWGLARYASICQQNRLVPIVEPEILADGPHSIEVCAVVTQKVLSCVFKALQENGVLLEGALLKPNMVTAGYECTAKTTTQDVGFLTVRTLRRTVPPALPGVVFLSGGQSEEEASVNLNSINALGPHPWALTFSYGRALQASVLNTWQGKKENVAKAREVLLQRAEANSLATYGKYKGGAGGENAGASLYEKKYVY
notes: also called Pf aldolase; recombinant Pf aldolase; source: E. coli BL21 (pGEX-5X), purified, GST tag removed
- Kd [1]: 330 nM
- Kd [2]: 365 nM

From publication PMC4251702, “Plasmodium falciparum aldolase and the C-terminal cytoplasmic domain of certain apical organellar proteins promote actin polymerization” (Molecular and Biochemical Parasitology, 2014)
